Read-outs that look alike come from different tables or passages of the source. Blank lines part the entries; values can stand above or below the molecule they belong to. Numbered stars: 1 amine (or outer) side, 2 acyl side, 3 side chain; on linkers, the order of the positions; unused ones are H or OH. Square brackets hold non-standard residues; d marks the D form. Side chains are listed from the residue outwards. Ends that are not written are not given here. Peptide text beside a SMILES is read from it. * marks the point of attachment. Ethylenediamine = C(CN[*:2])N[*:1]; Hyp = O=C(O)[C@@H]1C[C@@H](O)CN1; Phg = N[C@H](C(=O)O)c1ccccc1; CO = O=C([*:1])[*:2]; Bn = c1ccc(C*)cc1
Key:
[1] = cited from earlier work
[2] = cited from earlier work; remark: listed apart in the source
[3] = cited from earlier work; remark: listed apart in the source
[4] = Analytical size exclusion chromatography (apparent MW, hydrodynamic radius); assay type: physicochemical; conditions: for Apparent MW / RH (hydrodynamic radius): SEC; for Apparent Molecular Weight Factor: ratio of apparent molecular weight to calculated molecular weight
Protocol: Size exclusion chromatography analyses were performed on fusion proteins containing various therapeutic proteins and unstructured recombinant proteins of increasing length. […] Chromatogram profiles were monitored using OD214 nm and OD280 nm.

[5] = target: human recombinant GLP-2 glucagon family receptor (human) (UniProt O95838); test: cell-based or functional assay
Sequence of UniProt O95838 (O95838 whole entry): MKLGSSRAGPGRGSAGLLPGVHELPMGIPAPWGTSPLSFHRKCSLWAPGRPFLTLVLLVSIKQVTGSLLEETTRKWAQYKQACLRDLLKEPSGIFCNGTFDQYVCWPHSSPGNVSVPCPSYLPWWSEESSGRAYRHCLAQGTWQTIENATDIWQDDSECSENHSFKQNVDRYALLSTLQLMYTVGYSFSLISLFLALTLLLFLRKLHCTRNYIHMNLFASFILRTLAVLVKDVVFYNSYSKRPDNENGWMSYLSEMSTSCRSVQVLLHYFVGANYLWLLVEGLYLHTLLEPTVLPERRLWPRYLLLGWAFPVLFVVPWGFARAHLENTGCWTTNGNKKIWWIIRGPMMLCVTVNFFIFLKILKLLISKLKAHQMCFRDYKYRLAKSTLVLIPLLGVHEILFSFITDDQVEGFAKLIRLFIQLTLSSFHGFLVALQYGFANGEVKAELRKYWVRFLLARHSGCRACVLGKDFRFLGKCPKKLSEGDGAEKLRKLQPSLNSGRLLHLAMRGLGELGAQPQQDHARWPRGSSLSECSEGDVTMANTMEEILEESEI

[6] = unmodified peptide/protein, humans/patients
[7] = unmodified peptide/protein, humans (oxyntomodulin: in human plasma; ghrelin: terminal half-life)
[8] = unmodified peptide (GLP-1: biological half-life)

Molecule: CC(C)[C@H]1C(=O)N[C@@H](CCCN=C(N)N)C(=O)NCC(=O)N[C@@H](CC(=O)O)C(=O)N[C@H](Cc2ccccc2)C(=O)N1C [cilengitide, 2-[(2S,5R,8S,11S)-5-benzyl-11-{3-[(diaminomethylidene)amino]propyl}-7-methyl-3,6,9,12,15-pentaoxo-8-(propan-2-yl)-1,4,7,10,13-pentaazacyclopentadecan-2-yl]acetic acid, reference compound]
maximum drug concentration (poor solubility) [1]: ≤ 15 mg/mL | half-life [2, 6]: 3 to 5 h

Molecule: α-MSH: 13-amino acid peptide N-Ac-SYSMGFRWGLPV (SEQ ID NO: 564) (not fully specified; printed as N-Ac-SYSMGFRWGLPV; ends and bridges not checked)
half-life ([3]; unmodified form, in words): mere seconds

Molecule: CNP-22
half-life ([3]; unmodified peptide/protein (Fxa: plasma half-life)): 2.6 min

Molecule: relaxin
half-life [2, 7]: less than 10 min

Molecule: C-peptide: human pancreatic protein, middle segment of proinsulin (SEQ ID NO: 556) (EAEDLQVGQVELGGGPGAGSLQPLALEGSLQ; listed as Homo sapiens)
half-life ([2]; unmodified peptide, humans): about 30 minutes

Molecule: GLP-(7-37)OH: form of human glucagon like peptide-1 (HAEGTFTSDVSSTLEGQAALEFIAWLVKGRG; listed as Homo sapiens)
half-life [3, 8]: 3 to 5 min

Molecule: AC616: fusion: XTEN AE864, GLP2-2G
Apparent MW [4]: 1427 kDa | RH (hydrodynamic radius) [4]: 10 nm | Apparent Molecular Weight Factor [4]: 17.2

Molecule: POT4: synthetic cyclic peptide H-Ile-[Cys-Val-Val-Gln-Asp-Trp-Gly-His-His-Arg-Cys]-Thr-NH2, C3 complement inhibitor [reference compound]
circulating in vivo half-life ([3]; in vivo): 8 h

Molecule: enfuvirtide
half-life [2, 6]: 3.8 h

Molecule: IL-7: human interleukin encoded by the IL7 gene (SEQ ID NO: 562)
half-life [2, 6]: approximately 10 h

Molecule: GHRH: 44-amino acid peptide hormone (SEQ ID NO: 542)
half-life [3, 8]: less than 15 minutes

Molecule: ghrelin: human hormone GSSFLSPEHQRVQQRKESKKPPAKLQPR (SEQ ID NO: 557) (listed as Homo sapiens)
half-life ([2]; human, in vivo): 0.167 to 0.5 h

Molecule: NCCCC[C@@H]1NC(=O)[C@@H](Cc2c[nH]c3ccccc23)NC(=O)[C@H](c2ccccc2)NC(=O)[C@@H]2C[C@@H](OC(=O)NCCN)CN2C(=O)[C@H](Cc2ccccc2)NC(=O)[C@H](Cc2ccc(OCc3ccccc3)cc2)NC1=O [Pasireotide, [(3S,6S,9S,12R,15S,18S,20R)-9-(4-aminobutyl)-3-benzyl-12-(1H-indol-3-ylmethyl)-2,5,8,11,14,17-hexaoxo-15-phenyl-6-[(4-phenylmethoxyphenyl)methyl]-1,4,7,10,13,16-hexazabicyclo[16.3.0]henicosan-20-yl] N-(2-aminoethyl)carbamate, reference compound] (cyclo([Hyp]([CO-Ethylenediamine])[Phg][dW]KY(Bn)F))
half-life [2, 6]: 12 to 17 h

Molecule: oxyntomodulin: 37 amino acid peptide (SEQ ID NO: 552)
half-life ([2]; human, in vivo): ~0.2 h

Molecule: metreleptin: the commercially available form of leptin [reference compound]
half-life [2, 7]: 0.13 to 0.5 h

B1: Endostatin: 20-kDa C-terminal fragment derived from type XVIII collagen (SEQ ID NO: 565) (protein, listed as Homo sapiens)
chain: HSHRDFQPVLHLVALNSPLSGGMRGIRGADFQCFQQARAVGLAGTFRAFLSSRLQDLYSIVRRADRAAVPIVNLKDELLFPSWEALFSGSEGPLKPGARIFSFDGKDVLRHPTWPQKSVWHGSDPNGRRLTESYCETWRTEAPSATGQASSLLGGRLLGQSAASCHHAYIVLCIENSFMTASK
half-life [2, 6]: 13 h

B2: AC404: fusion: XTEN AE864, FVII (protein)
chain: AVFVTQEEAHGVLHRRRRANAFLEELRPGSLERECKEEQCSFEEAREIFKDAERTKLFWISYSDGDQCASSPCQNGGSCKDQLQSYICFCLPAFEGRNCETHKDDQLICVNENGGCEQYCSDHTGTKRSCRCHEGYSLLADGVSCTPTVEYPCGKIPILEKRNASKPQGRIVGGKVCPKGECPWQVLLLVNGAQLCGGTLINTIWVVSAAHCFDKIKNWRNLIAVLGEHDLSEHDGDEQSRRVAQVIIPSTYVPGTTNHDIALLRLHQPVVLTDHVVPLCLPERTFSERTLAFVRFSLVSGWGQLLDRGATALELMVLNVPRLMTQDCLQQSRKVGDSPNITEYMFCAGYSDGSKDSCKGDSGGPHATHYRGTWYLTGIVSWGQGCATVGHFGVYTRVSQYIEWLQKLMRSEPRPGVLLRAPFPGSPGSPAGSPTSTEEGTSESATPESGPGTSTEPSEGSAPGSPAGSPTSTEEGTSTEPSEGSAPGTSTEPSEGSAPGTSESATPESGPGSEPATSGSETPGSEPATSGSETPGSPAGSPTSTEEGTSESATPESGPGTSTEPSEGSAPGTSTEPSEGSAPGSPAGSPTSTEEGTSTEPSEGSAPGTSTEPSEGSAPGTSESATPESGPGTSTEPSEGSAPGTSESATPESGPGSEPATSGSETPGTSTEPSEGSAPGTSTEPSEGSAPGTSESATPESGPGTSESATPESGPGSPAGSPTSTEEGTSESATPESGPGSEPATSGSETPGTSESATPESGPGTSTEPSEGSAPGTSTEPSEGSAPGTSTEPSEGSAPGTSTEPSEGSAPGTSTEPSEGSAPGTSTEPSEGSAPGSPAGSPTSTEEGTSTEPSEGSAPGTSESATPESGPGSEPATSGSETPGTSESATPESGPGSEPATSGSETPGTSESATPESGPGTSTEPSEGSAPGTSESATPESGPGSPAGSPTSTEEGSPAGSPTSTEEGSPAGSPTSTEEGTSESATPESGPGTSTEPSEGSAPGTSESATPESGPGSEPATSGSETPGTSESATPESGPGSEPATSGSETPGTSESATPESGPGTSTEPSEGSAPGSPAGSPTSTEEGTSESATPESGPGSEPATSGSETPGTSESATPESGPGSPAGSPTSTEEGSPAGSPTSTEEGTSTEPSEGSAPGTSESATPESGPGTSESATPESGPGTSESATPESGPGSEPATSGSETPGSEPATSGSETPGSPAGSPTSTEEGTSTEPSEGSAPGTSTEPSEGSAPGSEPATSGSETPGTSESATPESGPGTSTEPSEGSAPGSSS
Apparent MW [4]: 1900 kDa | RH (hydrodynamic radius) [4]: 10.1 nm | Apparent Molecular Weight Factor [4]: 14.7

GPCR Ca2+ flux mobilization, EC50 [5]: 0.529 µM
B3: conjugate GLP2-2G-XTEN (protein, part only; not given: added cysteine position, not shown: small tags and cut ends)
peptide, part: HGDGSFSDEMNTILDNLAARDFINWLIQTKITD
chain: GSPGSPAGSPTSTEEGTSESATPESGPGTSTEPSEGSAPGSPAGSPTSTEEGTSTEPSEGSAPGTSTEPSEGSAPGTSESATPESGPGSEPATSGSETPGSEPATSGSETPGSPAGSPTSTEEGTSESATPESGPGTSTEPSEGSAPGTSTEPSEGSAPGSPAGSPTSTEEGTSTEPSEGSAPGTSTEPSEGSAPGTSESATPESGPGTSTEPSEGSAPGTSESATPESGPGSEPATSGSETPGTSTEPSEGSAPGTSTEPSEGSAPGTSESATPESGPGTSESATPESGPGSPAGSPTSTEEGTSESATPESGPGSEPATSGSETPGTSESATPESGPGTSTEPSEGSAPGTSTEPSEGSAPGTSTEPSEGSAPGTSTEPSEGSAPGTSTEPSEGSAPGTSTEPSEGSAPGSPAGSPTSTEEGTSTEPSEGSAPGTSESATPESGPGSEPATSGSETPGTSESATPESGPGSEPATSGSETPGTSESATPESGPGTSTEPSEGSAPGTSESATPESGPGSPAGSPTSTEEGSPAGSPTSTEEGSPAGSPTSTEEGTSESATPESGPGTSTEPSEGSAPGTSESATPESGPGSEPATSGSETPGTSESATPESGPGSEPATSGSETPGTSESATPESGPGTSTEPSEGSAPGSPAGSPTSTEEGTSESATPESGPGSEPATSGSETPGTSESATPESGPGSPAGSPTSTEEGSPAGSPTSTEEGTSTEPSEGSAPGTSESATPESGPGTSESATPESGPGTSESATPESGPGSEPATSGSETPGSEPATSGSETPGSPAGSPTSTEEGTSTEPSEGSAPGTSTEPSEGSAPGSEPATSGSETPGTSESATPESGPGTSTEPSEGSAPGR
modifications: N-terminal alpha-amino group modified with sulfo-SMCC and linked to GLP2-Cys; added cysteine thiol linked through the sulfo-SMCC cross-linker (maleimide) to the N-terminal alpha-amino group of the XTEN chain

B4: AC398: fusion: XTEN AE288, FVII (protein)
chain: AVFVTQEEAHGVLHRRRRANAFLEELRPGSLERECKEEQCSFEEAREIFKDAERTKLFWISYSDGDQCASSPCQNGGSCKDQLQSYICFCLPAFEGRNCETHKDDQLICVNENGGCEQYCSDHTGTKRSCRCHEGYSLLADGVSCTPTVEYPCGKIPILEKRNASKPQGRIVGGKVCPKGECPWQVLLLVNGAQLCGGTLINTIWVVSAAHCFDKIKNWRNLIAVLGEHDLSEHDGDEQSRRVAQVIIPSTYVPGTTNHDIALLRLHQPVVLTDHVVPLCLPERTFSERTLAFVRFSLVSGWGQLLDRGATALELMVLNVPRLMTQDCLQQSRKVGDSPNITEYMFCAGYSDGSKDSCKGDSGGPHATHYRGTWYLTGIVSWGQGCATVGHFGVYTRVSQYIEWLQKLMRSEPRPGVLLRAPFPGSPGTSESATPESGPGSEPATSGSETPGTSESATPESGPGSEPATSGSETPGTSESATPESGPGTSTEPSEGSAPGSPAGSPTSTEEGTSESATPESGPGSEPATSGSETPGTSESATPESGPGSPAGSPTSTEEGSPAGSPTSTEEGTSTEPSEGSAPGTSESATPESGPGTSESATPESGPGTSESATPESGPGSEPATSGSETPGSEPATSGSETPGSPAGSPTSTEEGTSTEPSEGSAPGTSTEPSEGSAPGSEPATSGSETPGTSESATPESGPGTSTEPSEGSAPGSSS
Apparent MW [4]: 650 kDa | RH (hydrodynamic radius) [4]: 8.2 nm | Apparent Molecular Weight Factor [4]: 8.5

B5: Glucagon-Y288: fusion protein of glucagon plus XTEN Y288 (protein)
chain: HSQGTFTSDYSKYLDSRRAQDFVQWLMNTGEGSGEGSEGEGSEGSGEGEGSEGSGEGEGGSEGSEGEGGSEGSEGEGGSEGSEGEGSGEGSEGEGGSEGSEGEGSGEGSEGEGSEGGSEGEGGSEGSEGEGSGEGSEGEGGEGGSEGEGSEGSGEGEGSGEGSEGEGSEGSGEGEGSGEGSEGEGSEGSGEGEGSEGSGEGEGGSEGSEGEGSEGSGEGEGGEGSGEGEGSGEGSEGEGGGEGSEGEGSGEGGEGEGSEGGSEGEGGSEGGEGEGSEGSGEGEGSEGGSEGEGSEGGSEGEGSEGSGEGEGSEGSGE
Apparent MW [4]: 370 kDa | RH (hydrodynamic radius) [4]: 7.0 nm | Apparent Molecular Weight Factor [4]: 12.9

Source: patent US10172953B2, “XTEN conjugate compositions and methods of making same” (Amunix Operating Inc., priority 2012, dated 2019)
